From patent US20250163182A1 (Janssen / Centocor, published 2025)

Assays:
human ENPP3 on cells [1] = biological target: T1, human ENPP3 on cells (human, UniProt O14638 1-875); assay: flow cytometry on CHO ENPP3 OE cells
T1 construct: whole, on cells; also called ENPP3 on A704, VMRCRCW, HepG2, TUHR4TKB, TUHR10TKB; CHO-K1 ENPP3 OE
T1 sequence (looked up): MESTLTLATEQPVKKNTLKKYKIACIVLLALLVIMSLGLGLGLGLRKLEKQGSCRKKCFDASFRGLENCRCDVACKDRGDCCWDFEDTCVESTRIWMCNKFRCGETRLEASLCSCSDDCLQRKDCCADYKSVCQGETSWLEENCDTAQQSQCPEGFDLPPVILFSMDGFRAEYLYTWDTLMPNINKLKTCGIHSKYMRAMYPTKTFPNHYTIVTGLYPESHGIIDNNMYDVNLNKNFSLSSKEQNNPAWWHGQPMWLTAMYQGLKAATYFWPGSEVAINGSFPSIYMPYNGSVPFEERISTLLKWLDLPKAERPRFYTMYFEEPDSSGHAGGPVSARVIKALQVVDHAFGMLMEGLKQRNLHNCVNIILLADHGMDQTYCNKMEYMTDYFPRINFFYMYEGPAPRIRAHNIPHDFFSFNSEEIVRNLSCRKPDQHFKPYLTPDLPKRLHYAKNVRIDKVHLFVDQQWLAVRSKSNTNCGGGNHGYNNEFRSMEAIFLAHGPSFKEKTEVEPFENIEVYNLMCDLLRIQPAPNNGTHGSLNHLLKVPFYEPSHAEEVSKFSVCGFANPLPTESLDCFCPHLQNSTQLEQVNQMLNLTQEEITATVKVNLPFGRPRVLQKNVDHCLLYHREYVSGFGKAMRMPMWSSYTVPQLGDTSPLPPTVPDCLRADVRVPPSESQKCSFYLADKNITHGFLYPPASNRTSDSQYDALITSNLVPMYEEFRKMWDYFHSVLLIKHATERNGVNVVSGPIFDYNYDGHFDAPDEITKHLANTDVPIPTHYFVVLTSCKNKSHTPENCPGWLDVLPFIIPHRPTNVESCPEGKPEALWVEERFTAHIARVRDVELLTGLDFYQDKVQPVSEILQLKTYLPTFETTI

human ENPP3 on cells [2] = biological target: T1, human ENPP3 on cells; assay: cell-based or functional assay
human CD3 on T cells = biological target: T2, human CD3 on T cells (human, UniProt P07766 23-207); assay: flow cytometry on human T cells, donor 110040278
T2 construct: on T cells it stands in the TCR-CD3 complex; also called human T cells; T cells isolated from healthy human donors

ENPP1 on CHOK1 cells = biological target: T3, ENPP1 on CHOK1 cells (UniProt P22413 1-925, limits assumed); assay: flow cytometry on CHO cells overexpressing ENPP1
T3 construct: whole, on cells; also called ectonucleotide pyrophosphatase/phosphodiesterase family member 1; CHO ENPP1 OE
T3 sequence (looked up): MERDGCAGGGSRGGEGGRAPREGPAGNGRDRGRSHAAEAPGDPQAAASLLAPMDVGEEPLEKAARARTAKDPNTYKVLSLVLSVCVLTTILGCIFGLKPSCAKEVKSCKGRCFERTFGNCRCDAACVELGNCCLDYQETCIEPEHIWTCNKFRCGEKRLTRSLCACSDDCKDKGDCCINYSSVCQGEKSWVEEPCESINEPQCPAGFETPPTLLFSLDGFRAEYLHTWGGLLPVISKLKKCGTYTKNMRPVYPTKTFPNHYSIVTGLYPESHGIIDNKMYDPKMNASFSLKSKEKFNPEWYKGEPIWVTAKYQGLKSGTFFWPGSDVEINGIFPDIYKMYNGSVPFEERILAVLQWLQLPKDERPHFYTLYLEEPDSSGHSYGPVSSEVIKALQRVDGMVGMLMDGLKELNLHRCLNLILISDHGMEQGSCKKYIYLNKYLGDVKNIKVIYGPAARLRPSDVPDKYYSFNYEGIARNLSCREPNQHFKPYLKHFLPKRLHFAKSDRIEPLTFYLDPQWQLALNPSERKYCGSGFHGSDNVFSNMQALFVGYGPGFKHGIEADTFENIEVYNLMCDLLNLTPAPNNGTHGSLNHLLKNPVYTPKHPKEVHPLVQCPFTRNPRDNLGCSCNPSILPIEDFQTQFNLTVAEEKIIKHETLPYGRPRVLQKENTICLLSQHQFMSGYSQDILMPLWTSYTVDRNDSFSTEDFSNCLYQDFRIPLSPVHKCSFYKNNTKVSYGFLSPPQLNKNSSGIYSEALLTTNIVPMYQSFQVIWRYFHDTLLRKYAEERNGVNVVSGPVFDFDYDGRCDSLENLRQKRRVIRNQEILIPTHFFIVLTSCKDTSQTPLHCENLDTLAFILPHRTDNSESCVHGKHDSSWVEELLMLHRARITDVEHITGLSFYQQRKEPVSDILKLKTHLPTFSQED

T2 sequence (P07766 23-207 limits assumed): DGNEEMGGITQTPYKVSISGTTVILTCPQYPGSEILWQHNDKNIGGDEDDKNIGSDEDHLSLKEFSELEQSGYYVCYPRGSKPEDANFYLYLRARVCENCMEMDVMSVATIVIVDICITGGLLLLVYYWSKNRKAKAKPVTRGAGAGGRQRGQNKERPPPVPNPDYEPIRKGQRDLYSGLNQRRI

B1: NPP3B815 (bispecific antibody, human IgG1, kappa, L234A L235A)
heavy 1: EIVLTQSPATLSASPGERVTLSCSASSSVSYMNWYQQKPGCAPRRWIYDSSKLASGVPARFSGSGSGRDYTLTISSLEPEDFAVYYCQQWSRNPPTFGGGTKVEIKGGGSGGSGGCPPCGGSGGQVQLVQSGAEVKKPGSSVKVSCKASGYTFTRSTMHWVKQAPGQGLEWIGYINPSSAYTNYNQKFQGRVTLTADKSTSTAYMELSSLRSEDTAVYYCASPQVHYDYAGFPYWGCGTLVTVSSEPKSSDKTHTCPPCPAPEAAGGPSVFLFPPKPKDTLMISRTPEVTCVVVSVSHEDPEVKFNWYVDGVEVHNAKTKPREEQYNSTYRVVSVLTVLHQDWLNGKEYKCKVSNKALPAPIEKTISKAKGQPREPQVYTLPPSREEMTKNQVSLWCLVKGFYPSDIAVEWESNGQPENNYKTTPPVLDSDGSFFLYSKLTVDKSRWQQGNVFSCSVMHEALHNHYTQKSLSLSPGK
heavy 2: EVQLVESGGGRVKPGGSLRLSCAASGFTFSDYSMNWVRQAPGKGLEWVSSISSISSYVKYADSVKGRFTMSRDNAKNSLFLQMNSLRDEDMAVYYCARGHYFDYWGQGTLVTVSSASTKGPSVFPLAPSSKSTSGGTAALGCLVKDYFPEPVTVSWNSGALTSGVHTFPAVLQSSGLYSLSSVVTVPSSSLGTQTYICNVNHKPSNTKVDKKVEPKSCDKTHTCPPCPAPEAAGGPSVFLFPPKPKDTLMISRTPEVTCVVVSVSHEDPEVKFNWYVDGVEVHNAKTKPREEQYNSTYRVVSVLTVLHQDWLNGKEYKCKVSNKALPAPIEKTISKAKGQPREPQVYTLPPSREEMTKNQVSLSCAVKGFYPSDIAVEWESNGQPENNYKTTPPVLDSDGSFFLVSKLTVDKSRWQQGNVFSCSVMHEALHNRFTQKSLSLSPGK
light: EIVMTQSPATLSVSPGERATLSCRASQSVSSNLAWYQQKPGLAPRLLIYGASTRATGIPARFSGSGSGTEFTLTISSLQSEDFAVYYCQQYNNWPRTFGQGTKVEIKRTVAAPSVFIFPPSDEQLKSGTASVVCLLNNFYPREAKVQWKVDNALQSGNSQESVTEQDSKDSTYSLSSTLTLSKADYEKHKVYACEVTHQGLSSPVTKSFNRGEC
notes: HC2 carries the NPP3B56 Fab and the hole T366S, L368A, Y407V; Fc with L234A, L235A, D265S; The CPPC linker cysteines form disulfides with engineered Cys at L42 and H105 (Chothia); also called NPP3B56×CD3B2030-N106A; ENPP3×CD3 (NPP3B815)
Human ENPP3 on cells [1]
  EC50: 0.51 nM
Human ENPP3 on cells [2]
  killing EC50; A704; PBMC donor 110040278; E:T 3:1: 0.052 nM
  killing EC50; A704; PBMC donor 110040278; E:T 5:1: 0.028 nM
  killing EC50; A704; PBMC donor 110042496; E:T 3:1: 0.097 nM
  killing EC50; A704; PBMC donor 110042496; E:T 5:1: 0.061 nM
  killing EC50; A704; PBMC donor 110042593; E:T 1:1: 0.124 nM
  killing EC50; A704; PBMC donor 110042593; E:T 3:1: 0.039 nM
  killing EC50; A704; PBMC donor 110042593; E:T 5:1: 0.015 nM
  killing EC50; A704; PBMC donor 110044049; E:T 1:1: 0.131 nM
  killing EC50; A704; PBMC donor 110044049; E:T 3:1: 0.052 nM
  killing EC50; A704; PBMC donor 110044049; E:T 5:1: 0.016 nM
  killing EC50; A704; PBMC donor 110048457; E:T 3:1: 0.046 nM
  killing EC50; A704; PBMC donor 110048457; E:T 5:1: 0.013 nM
  killing EC50; A704; PBMC donor 888668965; E:T 1:1: 0.107 nM
  killing EC50; A704; PBMC donor 888668965; E:T 3:1: 0.036 nM
  killing EC50; A704; PBMC donor 888668965; E:T 5:1: 0.015 nM
  killing EC50; VMRCRCW; PBMC donor 110040278; E:T 5:1: 0.033 nM
  killing EC50; VMRCRCW; PBMC donor 110042496; E:T 5:1: 0.065 nM
  killing EC50; VMRCRCW; PBMC donor 110042593; E:T 5:1: 0.033 nM
  killing EC50; VMRCRCW; PBMC donor 110044049; E:T 5:1: 0.051 nM
  killing EC50; VMRCRCW; PBMC donor 110048457; E:T 5:1: 0.063 nM
  killing EC50; VMRCRCW; PBMC donor 888668965; E:T 5:1: 0.062 nM
Human CD3 on T cells
  EC50: 253 nM
ENPP1 on CHOK1 cells
  binding result: no binding (tested: 100 nM)
